One assay concerns the target T1, CD59 (human CD59, hCD59) (human, UniProt P13987 26-102).
T1 construct: also called non-glycated CD59
T1 sequence: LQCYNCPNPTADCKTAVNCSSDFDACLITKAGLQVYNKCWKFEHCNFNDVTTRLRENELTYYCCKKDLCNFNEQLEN
As to the kind of experiment: hybridoma antibody characterisation, method not described.

Assay [1] deals with T2, K41 Amadori-modified glycated CD59 (GCD59) (human, UniProt P13987 26-102, Amadori-modified (glycated) lysine at K41, numbered on SEQ ID NO: 1).
T2 construct: also called Amadori-modified GCD59; Amadori-modified hGCD59
T2 sequence: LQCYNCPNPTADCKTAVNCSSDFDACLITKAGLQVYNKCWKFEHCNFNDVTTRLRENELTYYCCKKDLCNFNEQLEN
The experiment in a line: sandwich ELISA on urine dilutions (6, 3, 1.5, 0.75, 0.37, 0.18 %): H9 capture, D2 detection, HRP secondary antibody, OD 450 nm converted to SPU with the calibration curve. The protocol:
GCD59 detection in urine samples was carried out using detection antibody D2, described above, specific for Amadori-modified GCD59. Assay plates were first coated with CD59 capture antibody. H9. Urine samples were obtained from two subjects, one known to have a high level of HbA1C (HbA1C-H) and one known to have a low level of HbA1C (HbAC1-L). High levels of HbA1C are a known indicator of elevated blood glucose. Samples were prepared by first adding beta-mercaptoethanol (BME) to a final concentration of 5%. Samples were then boiled at 100° C. for 5 min and centrifuged to pellet any debris. Supernatants were then isolated for the assay. A surrogate compound standard, as shown in FIG. 27 of U.S. Pat. No. 9,417,248, was used to prepare a dilution series for generating a calibration curve. The Amadori-modified GCD59 surrogate included synthetic compounds including capture and detection peptides linked by a flexible linker.
Standard samples, urine samples, as well as control samples [serum dilution buffer (50 mM Acetic acid/Na acetate; 2% NonIdet P40 Substitute; 0.15% Tween 20; 0.1% Triton X-100; 50 ppm ProClin 300) only] were added to the assay plate in triplicate. Urine samples were further diluted using serum dilution buffer to create a series of conditions ranging from 6% v/v urine sample to 0.2% urine sample in serum dilution buffer. […]
A general note: ELISA stands for enzyme-linked immunosorbent assay.

B1: antibody H9 (clone H9), CD59 capture antibody (antibody, mouse IgG1, kappa, V domains shown)
VH: EVQLVESGGDLVKPGGSLKLSCAASGFTFSSYGMSWVRQSPDKRMEWVATISSGGSYTYYPDSVKGRFTVSRDNAKNTLYLQMSSLRSEDTAIFYCVRDRYDGMDYWGQGTSVTVSS
VL: DVVMTQSPLSLPVSLGDQASISCRSSQSLVHSNGNTYLQWYLQKPGQSPNLLIYKVSNRFSGVPDRFSGSGSGTDFTLKISRVEAEDLGVYFCSQSTHVPFTFGSGTKLEIKR
notes: Mouse hybridoma monoclonal antibody
In the case of B1, the binding result is listed as “binds” with CD59 (human CD59, hCD59) and “binds” in assay [1].
